Experimental data published in publication PMC5354205, “Structure and assembly of scalable porous protein cages” (Nature Communications, 2017).
Substitutions are numbered along the chain they refer to. “And” between values parts separate entries of the source, which are not always exact repeats. Equal values may be shown once. Values belong to the molecule of their own block, whether it stands above or below them.

Tests used:
[1] = biological target: AaLS-neg (lumazine synthase from Aquifex aeolicus with R83E, T86E, T120E, Q123E), C-terminal His6-tag (Aquifex aeolicus) (UniProt O66529); test: cryo-EM structure; single-particle reconstruction; 20 mM Tris-HCl pH 7.8, 0.2 M NaCl, 5 mM EDTA; monomer 80, 80 and 300 uM; Titan Krios 300 kV
[2] = biological target: lumazine synthase from Aquifex aeolicus, wild-type protein (AaLS-wt), C-terminal His6-tag (Aquifex aeolicus) (UniProt O66529); test: as above
[3] = biological target: lumazine synthase from Aquifex aeolicus, wild-type protein (AaLS-wt), C-terminal His6-tag (Aquifex aeolicus) (UniProt O66529); test: native MS; 5 uM monomer in 150 mM ammonium acetate, 25 mM triethylammonium acetate, pH 7.8; modified qTOF, nano-electrospray, positive ion mode; subunit copy number of the cage
[4] = biological target: the molecule itself; test: as above
[5] = biological target: the molecule itself; test: native MS; AaLS-neg pre-incubated in low ionic strength buffer: 10 mM ammonium acetate, pH 7.8; cage dissociated into smaller capsomers

- stoichiometry N [1]: 180
Molecule: AaLS-neg (lumazine synthase from Aquifex aeolicus with R83E, T86E, T120E, Q123E), C-terminal His6-tag (from UniProt O66529 1-154)

- stoichiometry N [2]: 60
Molecule: lumazine synthase from Aquifex aeolicus, wild-type protein (AaLS-wt), C-terminal His6-tag (from UniProt O66529 1-154) (enzyme)
- stoichiometry N [3]: 60

The remaining lines, values behind:

B1: AaLS-neg lacking a His6-tag (pMG211_AaLS-neg_noHis) (other, Aquifex aeolicus, UniProt O66529 1-154, looked up)
chain: MEIYEGKLTAEGLRFGIVASRFNHALVDRLVEGAIDCIVRHGGREEDITLVRVPGSWEIPVAAGELARKEDIDAVIAIGVLIEGAEPHFDYIASEVSKGLANLSLELRKPITFGVITADELEEAIERAGTKHGNKGWEAALSAIEMANLFKSLR
notes: lumazine synthase, Aquifex aeolicus, with four lumenal residues mutated to glutamate; Made for native MS; 180-mer in 150 mM ammonium acetate; pentamers, 10-mers and 15-mers after low ionic strength; source: E. coli BL21-gold (DE3), purified (lysate heated at 85 °C, MonoQ anion exchange, SEC Sephacryl S-400); copies: 180
- stoichiometry N [4]: 180
- stoichiometry N [5]: 5 and 10 and 15

B2: AaLS-13 lacking a His6-tag (pMG211_AaLS-13_noHis) (other, Aquifex aeolicus, UniProt O66529 1-154, looked up)
chain: B1 chain with D28G, R52C, T112S, V115D, A118D, R127C, K131E
notes: lumazine synthase, Aquifex aeolicus, with the four mutations of AaLS-neg and seven more from directed evolution; Made for native MS; charge states not resolved, the copy number only estimated (240 to 420); source: E. coli BL21-gold (DE3), purified (ammonium sulphate, MonoQ anion exchange, SEC Sephacryl S-400; 3 mM DTT added)
- stoichiometry N [4]: 240 to 420
